Results: patent publication US20240318135A1

How the values were obtained:
[1] = target: MART-1 peptide … presented by HLA*A0201 on T2 cells (human)
[2] = target: MART-1 peptide … presented by HLA*A0201 on T2 cells (human); assay: cell-based or functional assay
[3] = target: HLA-A*0201-… MHC dextramer (human); assay: flow cytometry of TnT-TCR cells stained with fluorescently-labelled pMHC dextramer and anti-CD3
[4] = target: HLA-A*0201-… MHC dextramer (human); assay: flow cytometry, serial dilutions of pMHC dextramer on TnT-TCR cells; EC50 of normalized dextramer saturation curves
[5] = target: HLA-A*0201-… MHC dextramer (human); assay: flow cytometry, serial dilutions of the target pMHC dextramer on TnT-TCR cells, pMHC-dex+ cells (% of max), three-parameter fit, n=3; the concentration is that of the dextramer
[6] = target: NY-ESO-1 peptide … presented by HLA*A0201 on T2 cells (human)
[7] = target: MART-1 peptide on HLA-A*02:01 (human); assay: NFAT-eGFP in TnT-TCR cells after overnight co-culture with peptide-pulsed T2 cells, FIG. 8C; full-length, on cells

| EC50 (peptide concentration for half-maximal GFP+ cells, NFAT-GFP reporter) [1] [nM] | fold difference in functional EC50 between DMF4 and DMF5 [2] [fold] | Q2 (percent of cells CD3+ and [..] pMHC dex+) (% (unit not given)) [3] | fold lower EC50 than DMF4 [4] [fold] | EC50 [5] [nM] | EC50 (peptide concentration for half-maximal GFP+ cells, NFAT-GFP reporter) [6] [nM] | difference of peptide EC50 between DMF4 and DMF5 [7] [fold] | Substance |
| --- | --- | --- | --- | --- | --- | --- | --- |
| 8.13 | < 2 | 99.1 | 39 | 0.00692 | – | – | TCR DMF5 |
| 14.2 | – | 48 | – | 0.267 | – | – | TCR DMF4 |
| – | – | 96.1 | – | 0.0568 | 167 | – | TCR 1G4 |
| – | – | – | – | – | – | < 2 | DMF5 |
